Laboratory results: the Immune Epitope Database (IEDB)
One block for each sequence: values may come before it.

How the values were obtained:
HLA-B*45:06 = assay: IEDB peptide-MHC binding, purified MHC/competitive/fluorescence; filed as Kd, often an IC50 or EC50 that approximates it; ≥ and ≤ were set here for values at or beyond the usual limits of such assays
HLA-B*27:05 [1] = assay: as above; details: source organism: Mycobacterium tuberculosis C
HLA-A*26:03 = assay: as above; details: source organism: Mycobacterium tuberculosis C
HLA-B*15:42 = assay: as above
HLA-B*83:01 = assay: as above
HLA-A*02:06 = assay: as above; details: source organism: Mycobacterium tuberculosis C
HLA-B*15:01 [2] = assay: as above; details: source organism: Mycobacterium tuberculosis C
HLA-B*58:01 [3] = assay: IEDB peptide-MHC binding, purified MHC/direct/fluorescence; filed as Kd, often an IC50 or EC50 that approximates it; ≥ and ≤ were set here for values at or beyond the usual limits of such assays; details: source organism: Mycobacterium tuberculosis
HLA-B*46:01 = assay: as above; details: source organism: Mycobacterium tuberculosis
HLA-B*07:02 [4] = assay: as above; details: source organism: Mycobacterium tuberculosis
HLA-B*08:03 = assay: as above; details: source organism: Mycobacterium tuberculosis str. Haarlem
HLA-A*31:01 [5] = assay: as above; details: source organism: Mycobacterium tuberculosis
HLA-B*48:01 = assay: as above; details: source organism: Mycobacterium tuberculosis
HLA-B*08:02 = assay: as above; details: source organism: Mycobacterium tuberculosis str. Haarlem
HLA-B*40:01 = assay: as above; details: source organism: Mycobacterium tuberculosis
HLA-A*26:02 = assay: as above; details: source organism: Mycobacterium tuberculosis str. Haarlem
HLA-A*01:01 [6] = assay: as above; details: source organism: Mycobacterium tuberculosis
HLA-B*18:01 [7] = assay: as above; details: source organism: Mycobacterium tuberculosis
HLA-A*69:01 = assay: as above; details: source organism: Mycobacterium tuberculosis
HLA-B*08:01 [8] = assay: as above; details: source organism: Mycobacterium tuberculosis str. Haarlem
HLA-A*11:01 [9] = assay: as above; details: source organism: Mycobacterium tuberculosis
HLA-A*68:02 [10] = assay: as above; details: source organism: Mycobacterium tuberculosis
HLA-B*15:17 = assay: as above; details: source organism: Mycobacterium tuberculosis
HLA-B*57:01 = assay: as above; details: source organism: Mycobacterium tuberculosis
HLA-A*02:01 [11] = assay: as above; details: source organism: Mycobacterium tuberculosis
HLA-B*27:05 [12] = assay: as above; details: source organism: Mycobacterium tuberculosis
HLA-B*15:01 [13] = assay: as above; details: source organism: Mycobacterium tuberculosis
HLA-C*14:02 = assay: IEDB peptide-MHC binding, purified MHC/competitive/fluorescence; filed as Kd, often an IC50 or EC50 that approximates it; ≥ and ≤ were set here for values at or beyond the usual limits of such assays; details: source organism: Entamoeba histolytica
HLA-A*24:02 [14] = assay: as above; details: source organism: Entamoeba histolytica
HLA-C*06:02 = assay: as above; details: source organism: Entamoeba histolytica
HLA-C*04:01 = assay: as above; details: source organism: Entamoeba histolytica
HLA-A*32:15 = assay: as above; details: source organism: Entamoeba histolytica
HLA-A*32:07 = assay: as above; details: source organism: Entamoeba histolytica
HLA-A*24:03 = assay: IEDB peptide-MHC binding, purified MHC/direct/fluorescence; filed as Kd, often an IC50 or EC50 that approximates it; ≥ and ≤ were set here for values at or beyond the usual limits of such assays; details: source organism: Entamoeba histolytica HM-1:IMSS
HLA-B*53:01 = assay: IEDB peptide-MHC binding, purified MHC/competitive/fluorescence; ≥ and ≤ were set here for values at or beyond the usual limits of such assays; details: source organism: Homo sapiens
HLA-B*58:01 [15] = assay: as above; details: source organism: Homo sapiens
HLA-B*07:02 [16] = assay: as above; details: source organism: Homo sapiens
HLA-A*02:01 [17] = assay: as above; details: source organism: Homo sapiens
HLA-A*24:02 [18] = assay: as above; details: source organism: Homo sapiens
HLA-A*31:01 [19] = assay: as above; details: source organism: Homo sapiens
HLA-A*25:01 = assay: as above; details: source organism: Homo sapiens
HLA-A*01:01 [20] = assay: as above; details: source organism: Homo sapiens
HLA-B*18:01 [21] = assay: as above; details: source organism: Homo sapiens
HLA-B*44:03 = assay: as above; details: source organism: Homo sapiens
HLA-B*14:02 = assay: as above; details: source organism: Homo sapiens
HLA-A*03:01 = assay: as above; details: source organism: Homo sapiens
HLA-B*51:01 = assay: as above; details: source organism: Homo sapiens
HLA-B*37:01 = assay: as above; details: source organism: Homo sapiens
HLA-B*08:01 [22] = assay: as above; details: source organism: Homo sapiens
HLA-A*11:01 [23] = assay: as above; details: source organism: Homo sapiens
HLA-A*68:02 [24] = assay: as above; details: source organism: Homo sapiens
HLA-A*29:02 = assay: as above; details: source organism: Homo sapiens
HLA-B*35:01 = assay: as above; details: source organism: Homo sapiens
HLA-B*40:02 = assay: as above; details: source organism: Homo sapiens
[25] = source organism: Mycobacterium tuberculosis C
[26] = source organism: Entamoeba histolytica

Sequence: ALFDRPAFK
- Kd (HLA-B*45:06; [25]): ≥ 5 µM
- Kd (HLA-B*27:05 [1]): ≥ 20 µM
- Kd (HLA-A*26:03): ≥ 20 µM
- Kd (HLA-B*15:42; [25]): ≥ 5 µM
- Kd (HLA-B*83:01; [25]): ≥ 5 µM
- Kd (HLA-A*02:06): 0.325 µM
- Kd (HLA-B*15:01 [2]): ≥ 20 µM
- Kd (HLA-B*58:01 [3]): ≥ 20 µM
- Kd (HLA-B*46:01): ≥ 20 µM
- Kd (HLA-B*07:02 [4]): ≥ 20 µM
- Kd (HLA-B*08:03): ≥ 20 µM
- Kd (HLA-A*31:01 [5]): 0.0047 µM
- Kd (HLA-B*48:01): ≥ 20 µM
- Kd (HLA-B*08:02): ≥ 20 µM
- Kd (HLA-B*40:01): ≥ 20 µM
- Kd (HLA-A*26:02): ≥ 20 µM
- Kd (HLA-A*01:01 [6]): ≥ 20 µM
- Kd (HLA-B*18:01 [7]): ≥ 20 µM
- Kd (HLA-A*69:01): ≥ 20 µM
- Kd (HLA-B*08:01 [8]): ≥ 20 µM
- Kd (HLA-A*11:01 [9]): 0.024 µM
- Kd (HLA-A*68:02 [10]): ≥ 20 µM
- Kd (HLA-B*15:17): ≥ 20 µM
- Kd (HLA-B*57:01): ≥ 20 µM

Sequence: QINELHHSK
- Kd (HLA-A*26:03): ≥ 20 µM
- Kd (HLA-B*58:01 [3]): ≥ 20 µM
- Kd (HLA-B*46:01): ≥ 20 µM
- Kd (HLA-B*07:02 [4]): ≥ 20 µM
- Kd (HLA-A*02:01 [11]): ≥ 20 µM
- Kd (HLA-A*31:01 [5]): 0.335 µM
- Kd (HLA-B*27:05 [12]): ≥ 20 µM
- Kd (HLA-B*48:01): ≥ 20 µM
- Kd (HLA-B*40:01): ≥ 20 µM
- Kd (HLA-A*01:01 [6]): ≥ 20 µM
- Kd (HLA-B*18:01 [7]): ≥ 20 µM
- Kd (HLA-B*15:01 [13]): ≥ 20 µM
- Kd (HLA-A*11:01 [9]): 0.0685 µM
- Kd (HLA-A*68:02 [10]): ≥ 20 µM
- Kd (HLA-B*15:17): ≥ 20 µM
- Kd (HLA-B*57:01): ≥ 20 µM

Sequence: SYMSTFPLF
- Kd (HLA-C*14:02): ≤ 0.0001 µM
- Kd (HLA-A*24:02 [14]): ≤ 0.0001 µM
- Kd (HLA-B*45:06; [26]): ≥ 5 µM
- Kd (HLA-C*06:02): 0.613 µM
- Kd (HLA-B*15:42; [26]): ≥ 5 µM
- Kd (HLA-C*04:01): 0.0883 µM
- Kd (HLA-B*83:01; [26]): ≥ 5 µM
- Kd (HLA-A*32:15): 0.784 µM
- Kd (HLA-A*32:07): 0.0005 µM
- Kd (HLA-A*24:03): ≤ 0.001 µM

- IC50 (HLA-B*53:01): ≥ 20 µM
- IC50 (HLA-B*58:01 [15]): ≥ 20 µM
- IC50 (HLA-B*07:02 [16]): 1.46 µM
- IC50 (HLA-A*02:01 [17]): 4.97 µM
- IC50 (HLA-A*24:02 [18]): ≥ 20 µM
- IC50 (HLA-A*31:01 [19]): ≥ 20 µM
- IC50 (HLA-A*25:01): ≥ 20 µM
- IC50 (HLA-A*01:01 [20]): ≥ 20 µM
- IC50 (HLA-B*18:01 [21]): 0.296 µM
- IC50 (HLA-B*44:03): ≥ 20 µM
- IC50 (HLA-B*14:02): ≥ 20 µM
- IC50 (HLA-A*03:01): ≥ 20 µM
- IC50 (HLA-B*51:01): ≥ 20 µM
- IC50 (HLA-B*37:01): ≥ 20 µM
- IC50 (HLA-B*08:01 [22]): ≥ 20 µM
- IC50 (HLA-A*11:01 [23]): ≥ 20 µM
- IC50 (HLA-A*68:02 [24]): 0.317 µM
- IC50 (HLA-A*29:02): ≥ 20 µM
- IC50 (HLA-B*35:01): 0.737 µM
- IC50 (HLA-B*40:02): 0.54 µM
Sequence: YPDPVIKV
